This data set is described as follows: label from the status in PepcDB records.
With “MSRRNGGLFPTDLQTIARDIGSLLLMEAGLMTITAAVALGFQEFYAAFGFFTAAGMTAGVGGLANRGFSDAPAPQMKHGMVIAAGGWLLVAAFGSLPFLLTAWFTPPAVMDTFVPVGTDTSTWAPIRVGGTTTLSSLAYFRNPLHAFFESMSGWTGSGLTMAIHEPSLPRAVQWWRSFIQYVGGVGVIVLTVSILSRPGSGSYALYQSEAREEKIHPSVVSTVRTVWKLVVGYTVLSFALLFGAILASDSEYAESLPLWEVAWQALNHAMTGLTTGGFSVTDNSIATYNSPLVETVLLPIMILGAIAFPVHYVVLHDRQVRELVTDLQTRWLFILLTVGVVGLSVQNAWSVPATTEAFATQSFLPVSVPMLNAAQLDAVRDSTFQWVSALSCTGFQSAPIGRWLAGGKVLVAGAMVLGGAAGSTVGGIKIIRGYTIVRGIIWQFSRVFLPTNAVITARIGNRTLDRESMEREFSEAAIVTLLWLIILIISSVVLTNVAGPAFGYADALFEVASAQGNVGLSSGITGPSMPAIAEGMFVLNMWVGRLEIIPILVFIRAGLYGLDP”, the protein production result is given as “failed”.

With “MKIELLLLFLVFAWDGYFFLRYIIGLTRKYRTIQWNPTVSVIIPAYNEEENIESAIKAALSQDYPVSEVIVVDDGSEDKTYERALRMAQEDTRVKVIRIPHGGKARALNEGIKVARGEIIVTTDADSYMAKDAVRRLVERFYSPDIVGVGGQIRVVVESFLTLVQDIEHLRIAMYRRAKELEDLSLAPGPLSAFRREALDQIGGIAESIVEDYATTKLLKKVGKVVYAPKAKLFTRMPITLKELWRQRKRWFIGDLNHLEPKDYAILMLSDFIAFLDVILPLLFIVRGEFLLLGAFFGFEILTMLPPIIFEGGSIIEALSFPFILIFLAMFYLGIHIYGYLTKLNAKIFK”, the protein production entry is given as “failed”. With “MEATAVNPSIVTASRTVQPYRRLSTLSLRFPTYRNKRVSPFTLTITRCSTTKSREAGQDSSISLKRGLVFDLGVSKDSWHSEEIGSPVVKRFLSDNEERWYMWYHGSSKQNPVSDSIGLAVSNNGIHWERGNGKVESSEDVGLVMSCGEDWWGFDTASVRPGEVVIMSSSKVRANSSVYWMYYTGYTKETVEFQSQDFTSVLGNPERFHLCDENAEKSRVYYRSLPGLAISQDGRHWARIEGEHHSGALFDVGSEKDWDFLYIASPHVVFHGDGDLRMYYHSFDEKTGEFCIGMARSRDGIKWLKLGKILGGRKSEKDGLGFFDELGGRYPCVTRNKRDESYVMAYEGVDRTGKTSIGFAVSKDGIKDWKRVQDEEAVIAVGEGGAWDNEGVGCPYLIEMDGDSDHQWRLYYRGVGNGGRTAMRGEQFELEEDRDGPLELLQSLRSKATELLLREEWEESIKVYTEFIDLSRRQVSSTGGSDPDPDSIAKLRKSLCLALCNRAEARARLRDFLEAMRDCDQALEIEKTHFKTLLCKGKVLLGLSKYSLALECFKTALLDPQASDNLETVTVYIEKCKKLEFQAKTGAFDLSDWILSEFRGKCPELAEFIGSIEIKKSELSGRGLFATKNIVAGTLVLVTKAVAIERGILGNGECGEKAQLIMWKNFVEEVTESVRKCGRTRRVVSALSTGQGEDSLEIPEIALFRPDEAFETCGDWKQSLDTEKLLSILDVNSLVEDAVSGKVMGKNKEYYGVGLWTLASFINHSCIPNARRLHVGDYVIVHASRDIKTGEEISFAYFDVLSPLEKRKEMAESWGFCCGCSRCKFESVLYATNQEVREFEMGLERGVDAGNAVYMVEEGMKRWKVKGKDKGLLRASYWGVYDEIYNSERLMKRWGRKIPTMEVVVDSVSDVVGSDERLMKMAVEGMMKKHGGFSNIVEMEKIMKLGKGVYGKVVSKKKAMKTLLGIE” the entry was “failed”; with “MATTTSAACPIFSLSLLGRFVLTGPDGAVSLPNKKLAGLLAFLACMAPDPQSREKLSTLLWGSYLDAQAKQNLRQALFKLRQILGQDALRSDGELVSLNAMVIACDVSQFEELVQDGSRDALSAAADLYRGRLADDISVGEECWSEWVAGERERLSELALGAMVTLGGHELSEGRAEQALRTGQRANALNNLREDSHRLIMRALSATGRNAEALKYYRDVVALLKRELSTEPDLATRSLAAELRSNHPQNAAPAAGEVAPEASPPPALVMHGERPSLVVLPFSNMSGDPEQDYFADGVTADIITALSRFRALVVIARGTSFALRDKGMTSQQIAQQLGVQYVLSGQIRKAGNRIRVSAELTHSGSEAQVWSDRYDRPLTDIFDLQDDVSSSVAAVVDPAVRSAEIERARRKPPTNLSAYDLYLRALHHLWGGTREDITKAIDLLRQSLSLDEARSPTLAALAWGLVMASPLGAHTSPDATTEALSLARRAVEQDGTDAFAHAVYGFTLFGPAGDNDQGRIHAVEAVRLNPSSAFAWGTLGMIDSMAGDYENAVTCLHRSLVLSPYDSMLHLWMTGLTASCFALGRHEDGIAWARKSVQHNPGNGTGHRMLAANLVAAGRLEEAREITRRRDATQKTTIRDLRAMRFFKQNDALERYLSAQQVAGVAD”, “failed”; with “MIDCLVMAGGQGARMGFREKPLLSVCGQPMLLRVLSALRMACRRIAIVYSRHTPGVKRLCLSGALGAVECIEGPGSYVKDLRLGFSHISTPLLVAPADMPFLNPHHLNLFIDRALADGASIVNLSLRGRGLTGLSVFKHHRGWWRDVETNGCWALDVDTWEDFRRAGELCGGECTGEGLRLELLEHHHHHH”, “failed”. For “MTQGTARAQQNNIPVGIALMLAATVVFALQDGISRHLASSYNTYMVVMIRYWFFAAFVIALAARSRGGLRAATRTAQPGLQIFRGLLLASEICVAVFAFTVLGLIESMAVFICYPLLVAALSGPVLGEKVGWRRWAAIGVGLVGVLIILQPGMGVFNPWAVVPLISALMFALYGLLTRYAARQDSTATSFFWTGVTGAVAMTAVGLWFWEPMSAPDWRWMALLCVSGALGHWLLIKCYEMAEASAVQPFAYFHLMWTAILGITVFGETLRSAVIIGAALIVAAGLFTLWRERAQSRSR” the value was “failed”; for “MFEVTVSKRLLKSGIIVSAMTLISRVLGLVRDVVVANLMGAGASADVFFFANRIPNFLRRLFAEGAFSQAFVPVLTEYHASGDINKTRDLIARASGTLGVLVTIVTLIGVLGSGAVTALFGAGWFLDWLNGGPAAGKFELASLLLKITFPYLWFITFVALSGAILNTLGKFAVSSFTPVFLNVMMILCAWYLSPNLEQPEVGLAIGVFLGGLVQFLFQLPFLIKAGVLVRPKWGWKDPGVVKIRTLMIPALFGVSVSQINLLFDSFVASFLQTGSISWLYYSDRLLEFPLGLFGIAIATVILPALSRKHVDAHSDGFAHTMDWGIRMVTFLGIPAMLGLMVLAKPMLMVLFMRGEFTPSDVEQASYSLLAYSSGLLSFMLIKVLAPGYYSRQDTKTPVRYGIIAMVSNIVLNAIFAWFYGYVGLAVATSMSAFLNMALLYRGLHLQGVYHLTRKTVWFVARLAMAGAVMTGALLWQLDTMATWLSWGISQRALTLTGLIGLGVASYLAILLLLGVRLKDLKAATE”, “failed”; for “SGCGGSRADAIEPRYYESWTRETESTWLTYTDSDAPPSAAAPDSGPEAGGLHSGMLEDGLPSNGVPRSTAPGGIPNPEKKTNCETQCPNPQSLSSGPLTQKQNGLQTTEAKRDAKRMPAKEVTINVTDSIQQMDRSRRITKNCVN”, “failed”. With “MASHVDLLTELQLLEKVPTLERLRAAQKRRAQQLKKWAQYEQDLLHRKRKHERKRSTGGRRKKVSFEASVALLEASLRNDAEEVRYFLKNKVSPDLCNEDGLTALHQCCIDNFEEIVKLLLSHGANVNAKDNELWTPLHAAATCGHINLVKILVQYGADLLAVNSDGNMPYDLCEDEPTLDVIETCMAYQGITQEKINEMRAAPEQKMISDIHCMIAAGQDLDWIDGQGATLLHIAGANGYLRAAELLLDHGVRVDVKDWDGWEPLHAAAFWGQMPMAELLVSHGASLSARTSMDEMPIDLCEEEEFKVLLLELKHKHDVIMKSQLRHKSSLSRRTSSAGSRGKVVRRASLSDRTNLYRKEYEGEAILWQQRSAAEEQRTSTYNGDIRETRTDQENKDPNPRLEKPVLLSEFSTKISRGELDGPVENGLRAPVSTYQYALANGDIWKMHEIPDYSMAYGNPGMADVPPPWSGFKEQSPQTLLELKRQRAAAKLLSHPFLSTHLGSSVARSGEGSSEGKAPLIGGRTSPYSSNGTSVYYTVTSGDPPLLKFKAPMEEMEEKVHGCCRIS” the entry was “failed”; with “MLIRRKIMQYNDMSKEELLVLKESLNKEYAEAKAKGLALDMSRGKPSAKQLDVSLGLLDTINSSSDLKSLDGTDCRNYGVLDGIPEAKKLMADMMGTTPDHVIVYGNASLNIMYDQISRAYTHGILGNTPWCKLDKVKFLCPVPGYDRHFAITERFGIEMINIPMSESGPDMGMVEEYVSKDASVKGIWCVPKYSNPQGYTYSEETVKRMAALKPAAEDFRIFWDNAYVIHDLYDDNKDEIADIISECEKAGNPDMVFEFASTSKVSFPGSGIAALATSANNIADIKKQLTIQTIGHDKLNQLRHVRFFKDINGLKEHMRKHAEFIRPKFEAVESVLEEELSGLGIGSWTEPKGGYFISFDAMDGCAKAIVAKCKEAGVKLTGAGATFPYGKDPKDSNIRIAPSFPTPEEMKQAADLFVLCVKLVSVEKLLENK”, “failed”.

For the sequence “MPELSVILAGFGDALAPINLLFILFGVALGQFVGAVPGIGPVMATAIAIPFTFGMDPLTGIAFLVGVNKGGLVGGAIPAVLLNTPGTPDAAATALDGYPLAKQGKPLKATKMALFSSITGDTFSDIVLITVSAPMAILALRMGPVEVLGLMLLAFAVIAGLMGQSLVKGVVAIALGLMAAMVGTDPEHGSPRLIFGNYELYDGLPLASVAIGMLAISELLKRLSETRGTVRPAITLPRNQPRADRSVSWAEYWGCRFTMLRGAVIGTILGALPGIGSTAAAFMSYASARQASKEPESFGKGSLHGIAASESANSSVMGANMIPMLTLGIPGSVSAALIISAFMIHGIQPGPFLFSQQGQLVYGLFGAMIIANLINLWVGQLGLRFWVRVVSAPEPFIFASALLMCFVGVALASGGLFGIGVMLVFALLAYVMSAFGISVVVFIIAFFLGPRLEISLSQTLALLNGQPQKLLDYPFALVLMALALVTAVALARRRDTESETR”, the protein production entry is on record as “failed”.

As for “ERLILCSPYFIPDESLLEAVTSACYRGVTVELFVSEQADQFAIDHAQSSYYQALLEAGVKIYQFPKPDVLHTKYMIADPDDTTGNEALGVLGSSNLDIRSFGLNYEISLMIAKGNLIHELNALTDRYRTVSFKLTLDKWNQR”, the protein production result is recorded as “failed”. For “KQVAEIGDRAVELVHDGSLLAPEDMGPYVAPIAFNALPFAGNLVEDGTEETDEEQKLRNESRKILGLPDLKVAGTCVRVPVFTGHTMVVHAEFNNAITPEQAREVLGNAAGVDVVDVPTPLAAAGVDNSLVGRIRQDQTVDDNKGLVFVVSGDNLRKGAALNAIQIAELLV” the value was “failed”; for “MKVVGLDLGGTKIAAGVFDGKRLLSKVVVPTPKEGGERVAEALAEAAERAEREAGVRGEAIGLGTPGPLDFRRGVIRFAPNIPGVQDFPIRRILEEATGRPVFLENDANAAALAEHHLGAAQGEESSLYLTVSTGIGGGVVLGGRVLRGERGQGGELGHLTLLPGGPACGCGLEGCLEALAAGRALERDATYAFQRPVDTRELFRLFQAGDPKAERLVLQAARYVGIGLASLVKAFDPGVVVLGGGVALNAPEGYWEALLEAYRRYLQGWEAPPLRRARLGAEAGLLGAALTAYLEVKDGSG”, “not failed”; for “ESKYIEYKKSRKGLSNDIWSTYSAFANTEGGTIYLGIEEKKIEDKKVFVSVGVEDPEKMIEDFWNALYGRSKVSQNILSNKDVKIVNIENKACIEIHVPEAPYSKKPIYVDNKKDLVYKRVDDADRIATEEEYKFMIVNSQDDIDTELLDNYDMSDLNHESIENYRKLLLKNTNDERYANMSQLDLMIDLGAYRKDRSSKDKQYKMTTACLLFFGKYNAISDRFPGFQLDYFKKTNYLDTDWKDRISSGDLGNEDLNVYSFFEKVLIKLTDNIEESFSLNDGLTRQNYARDLKVAIREALVNTLMHAYYDTKQSIKIVNCEDFIEFYNPGNMRINKEDFIHGGHSKDRNSILSTLFRRVGYSEKAGSGGPRIFDVVNRHKLKTPEIELTDMDTNVVLWKQDLMKEFEKYPELDKKVIKYIIDYGSISKGEALKMENMTEYQFRNILKKLKDDNLIKKEGEGPATKYVL”, “failed”.

Source of the values: a protein production outcome set (Wang et al. 2014).
